Assay results reported in patent publication US20220002432A1 (VIRTUOSO BINCO, published 2022).
Substitutions are numbered along the chain they refer to. Blank lines part the entries; values can stand above or below the binder they belong to.

Columns and labels:
[1] = target: T1, cynomolgus CD38 ECD (cynomolgus, UniProt Q5VAN0 44-301, biotinylated on the AviTag during preparation); experiment: ELISA: plate coated with 1 ug/ml recombinant cynomolgus CD38 ECD, serially diluted antibody, OD450
T1 construct: also called Cyno-CD38; Avi-Cyno CD38 ECD
Description: (§1) The plate was coated overnight at 4° C. with 1 μg/ml recombinant CD38 or ICAM1. After washing 3 times, the plate was blocked with 300 μl 1% BSA in PBST at 37° C. for 1 hour. Serially diluted antibodies were added and incubated at 37° C. for 1 hour. The plate was then washed 4 times with PBST and incubated with 1:5000 diluted 2nd antibody (Sigma, Cat #A0293) at 37° C. for 1 hour.

[2] = target: T1, cynomolgus CD38 ECD; experiment: SPR (Biacore 8K), antibody captured, antigen injected;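 further: antibodies held on a CM5 chip through anti-human IgG Fc, antigen in 3-fold serial dilutions, 1 min association then 10 min dissociation at 25 °C, 1:1 Langmuir global fit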
Description: (§2) The binding kinetics of the anti-CD38 and anti-ICAM1 antibodies were evaluated on a Biacore 8K instrument (GE Healthcare). Biacore Series S CM5 sensor chips were immobilized with monoclonal mouse anti-human IgG (Fc) antibody (human antibody capture kit from GE Healthcare). Antibodies were captured on each flow cell. Serial 3-fold dilutions of each antigen were injected at a flow rate of 30 μl/min. Each sample was analyzed with 1 min association and 10 min dissociation at room temperature (25° C.). After each injection, the chip was regenerated using 3M MgCl₂. A 1:1 Langmuir model of simultaneous fitting of kₒₙ and koff was used for kinetics analysis.

[3] = target: T2, recombinant human CD38 (human, UniProt P28907 43-300, limits assumed); experiment: as above
Description: as §2

[4] = target: T3, CD38 on the surface of Daudi cells (human, UniProt P28907 1-300); experiment: flow cytometry, Daudi cells;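 further: purified antibodies incubated with Daudi cells for 1 h at 4 °C, bound antibody detected by fluorescent secondary antibody and read by flow cytometry as MFI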
T3 construct: whole, on cells
Description: Harvested cells were centrifuged at 2000 rpm for 5 min and resuspended with 10-15 ml ice-cold culture medium. Cells were counted and then 3×10⁶ cells were resuspended per mL of blocking buffer (PBS plus 2% FBS). 100 μl of the cell suspension was dispensed into each well of a 96-well plate and incubated at room temperature for 10-20 min. […] While incubating, purified antibodies were diluted to the desired dilution with blocking buffer. After a 10-20 minutes incubation, cells were centrifuged for 5 min at 2000 rmp in a refrigerated centrifuge. Blocking buffer was aspirated, and cells were resuspended in 100 μl/well diluted antibodies and incubated for 1 hour at 4° C. The cells were then washed 3 times with PBS plus 2% FBS. After the final wash, the cells were resuspended in 100 μl 1:500 diluted secondary antibody (Invitrogen, Cat #: A10631) and incubated for 1 hour at 4° C. in the dark. The cells were then washed 3 times with 200 μl PBS by centrifuging at 2000 rpm for 5 min. After the last wash, the cells were resuspended in 300 μl cold PBS and analyzed on a FACSVerse™ (BD Biosciences) flow cytometer.

[5] = target: T2, recombinant human CD38; experiment: ELISA: plate coated with 1 ug/ml recombinant human CD38 ECD, serially diluted antibody, OD450
Description: as §1

B1: 20B5 (antibody, human IgG1, kappa, V domains shown)
VH: QSLEESGGDLVKPGASLTLTCTASGFSFSSRYWICWVRQAPGKGLEWIACIVAGTTNTYYASWAKGRFTISKTSSTTVTLQMTSLTAADTATYFCAGDPRTGSNVGYFNLWGPGTLVTVSS
VL: AQVLTQTPSPVSAAVGGTVTINCQASQSVYNNNYLAWFQQKPGQPPKLLIYSASTLASGVPSRFKGSGSGTQFTLTISEVQSDDAATYYCQAYYSGGIYAFGGGTEVVVKR
notes: Rabbit-human chimeric anti-CD38: rabbit VH and VL on human IgG1 and kappa constant regions
- EC50 (read off the curve) [1]: ~0.06 nM
- Kd [2]: 54.8 nM
- koff [2]: 0.0322 s⁻¹
- kon [2]: 588000 M⁻¹ s⁻¹
- Kd [3]: 98.5 nM
- koff [3]: 0.0341 s⁻¹
- kon [3]: 346000 M⁻¹ s⁻¹
- EC50 [4]: 0.373 nM
- Max Binding MFI [4]: 816 MFI

B2: 26D4 (antibody, human IgG1, kappa, V domains shown)
VH: QEQLEESGGDLVKPEGSLTLTCTASGFSFSNDAICWVRQAPGKGLEWIACIYAGSGNTYYASWAKGRFSISKTSSTTVTLQMTSLTVADTATYFCASADTIDYFNLWGPGTLVTVSS
VL: B1 VL with F38Y, S52R, T55N, K65S, G66A, S95R, G96D, G97P, I98T, Y99T
notes: as for B1
- EC50 (read off the curve) [1]: ~0.06 nM
- Kd [2]: 43.8 nM
- koff [2]: 0.0313 s⁻¹
- kon [2]: 715000 M⁻¹ s⁻¹
- Kd [3]: 510 nM
- koff [3]: 0.102 s⁻¹
- kon [3]: 200000 M⁻¹ s⁻¹
- EC50 [4]: 4.06 nM
- Max Binding MFI [4]: 577 MFI

B4: 22H6 (antibody, human IgG1, kappa, V domains shown)
VH: QSVEESGGRLVTPGTPLTLTCTVSGFSLSNNAISWVRQAPGKGLQWIGSIYGSGNTYYATWAKGRFTVSKTSTTVDLKINSPTTEDTATYFCAREGAGSSWGFNLWGPGTLVTVSS
VL: AQVLTQTASSVSAAVGGTVTISCQSSESVYKNNYLSWYQQKPGQPLKCLIYSASTLASGVPSRFKGSGSGTQFTLTISDLESDDAATYYCAGGYSGNINGFGGGTEVVVKR
notes: as for B1
- EC50 (read off the curve) [1]: ~0.06 nM
- Kd [2]: 62.4 nM
- koff [2]: 0.0352 s⁻¹
- kon [2]: 564000 M⁻¹ s⁻¹
- Kd [3]: 65.4 nM
- koff [3]: 0.021 s⁻¹
- kon [3]: 321000 M⁻¹ s⁻¹
- EC50 [4]: 1.32 nM
- Max Binding MFI [4]: 782 MFI

Stronger by Kd [2], values ahead:

- EC50 (read off the curve) [1]: ~0.06 nM
- Kd [2]: 0.76 nM
- koff [2]: 0.00014 s⁻¹
- kon [2]: 184000 M⁻¹ s⁻¹
- Kd [3]: 0.004 nM
- koff [3]: 5.99e-07 s⁻¹
- kon [3]: 166000 M⁻¹ s⁻¹
- EC50 [4]: 1.2 nM
- Max Binding MFI [4]: 1930 MFI
- EC50 (read off the curve) [5]: ~0.06 nM
B3: 21H9 (antibody, human IgG1, kappa, V domains shown)
VH: QSLEESGGDLVKPGASLTLTCTASGFSATTYYYYMCWVRQAPGKGLEWIACTYTGDGATYYATWAKGRFTISKTSSTTVTLQMTSLTAADTATYFCARSADNSIYYGYFNLWGPGTLVTVSS
VL: AFELTQTPFSVSEPVGGTVTINCQASENIYSSLAWYQQKPGQPPKLLIYRASTLASGVPSRFSGSGSGTEFTLTISGVQSDDAATYYCQTYYGSTSTGFTFGGGTEVVVKR
notes: as for B1

- EC50 (read off the curve) [1]: ~0.06 nM
- Kd [2]: 0.28 nM
- koff [2]: 0.00029 s⁻¹
- kon [2]: 1.02e+06 M⁻¹ s⁻¹
- Kd [3]: 0.31 nM
- koff [3]: 0.000117 s⁻¹
- kon [3]: 376000 M⁻¹ s⁻¹
- EC50 [4]: 0.298 nM
- Max Binding MFI [4]: 1200 MFI
- EC50 (read off the curve) [5]: ~0.06 nM
B5: 27F6 (antibody, human IgG1, kappa, V domains shown)
VH: QSLEESGGGLVKPGASLTLTCKASGFSFSSGCDMCWVRQAPGKGLEWISCIYTGSGSTYYANWAKGRFTISRTSSTTVTLQMTSLTAADTATYFCAGDSDYLGLWGPGTLVTVSS
VL: DIVMTQTPSSVEAAVGGTVTIKCQASQNIGNYLAWYQQKPGQPPKVLIYRASTLASGVPSRFKGSGSGTHFTLTISDLESADAATYYCQSYYYTTDDNYRSWAFGGGTEVVVKR
notes: as for B1

- EC50 (read off the curve) [1]: ~0.06 nM
- Kd [2]: 0.55 nM
- koff [2]: 0.000294 s⁻¹
- kon [2]: 536000 M⁻¹ s⁻¹
- Kd [3]: 0.67 nM
- koff [3]: 0.000125 s⁻¹
- kon [3]: 187000 M⁻¹ s⁻¹
- EC50 [4]: 0.704 nM
- Max Binding MFI [4]: 1000 MFI
- EC50 (read off the curve) [5]: ~0.06 nM
B6: 23D1 (antibody, human IgG1, kappa, V domains shown)
VH: QELVESGGGLFQPGGSLALTCKASGFSLSNIYVMCWVRQAPGKGLEWIACIGTGSGDTDYATWAKGRFTISKTSSTTVTLQMTSLTAADTATYFCARDPGAGTWNLWGPGTLVTVSS
VL: DIVMTQTPSSVEAAVGGTVTIKCQASQTIGSRLAWYQQKPGQPPKLLIYSASTLASGVSSRFKGSGSGTQFTLTISDLDSADAATYYCQSYYYTSTSYPNAFGGGTEVVVKR
notes: as for B1
